Patent US20220089678A1 (CARTESIAN THERAPEUTICS, published 2022)
Substitutions are numbered along the chain they refer to.

T1: human BCMA on cells (human, UniProt Q02223 1-184)
T1 sequence: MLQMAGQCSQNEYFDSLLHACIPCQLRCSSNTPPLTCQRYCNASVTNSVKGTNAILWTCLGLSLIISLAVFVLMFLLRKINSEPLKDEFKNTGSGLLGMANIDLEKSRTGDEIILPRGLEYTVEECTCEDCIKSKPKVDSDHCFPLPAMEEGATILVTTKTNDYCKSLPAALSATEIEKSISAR

T2: phycoerythrin (PE)-conjugated BCMA (Recombinant Human TNFRSF17 protein, Fc/His-tagged, R-PE labeled); Creative … (human, UniProt Q02223 1-54, R-PE labeled)
T2 construct: Bought reagent; also called BCMA-PE; not shown: Fc/His tag of the bought reagent
T2 sequence: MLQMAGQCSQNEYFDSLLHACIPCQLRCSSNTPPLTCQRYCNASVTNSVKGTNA

B1: CAR comprising scFv-1′ (SEQ ID NO: 62) (other)
chain: DIVLTQSPSSLSASVGDRATISCRASESVTILGSHLIHWYQQKPGQAPKLLIQLASNVQTGVPARFSGSGSGTDFTLTISSVEPEDVAVYYCLQSRTIPRTFGQGTKVEIKGSTSGSGKPGSGEGSTKGQIQLVQSGPELKKPGGSVKISCAASGYTFTSYDINWVRQAPGKGLEWVGWINTETREPAYAYDFRGRFTFSADTSKSTAYLQMNSLRAEDTAVYYCALDYSYAMDYWGQGTLVTVSS
notes: CAR on mRNA-electroporated human CD8+ T cells; Only the scFv is identified; not shown: rest of the CAR (hinge, transmembrane, cytoplasmic domains) not specified for this construct
B2: CAR comprising scFv-4′ (SEQ ID NO: 63) (other)
chain: B1 chain with S160D, D162S, S230T, A232G
notes: as for B1
B3: CAR comprising scFv-9′ (SEQ ID NO: 65) (other)
chain: DIVLTQSPSSLSASVGDRATISCRASESVSFLGINLIHWYQQKPGQAPKLLIYSASNLQSGVPARFSGSGSGTDFTLTISSVEPEDVAVYYCLQSKNFPRTFGQGTKVEIKGSTSGSGKPGSGEGSTKGQIQLVQSGPELKKPGGSVKISCAASGYTFTDYSINWVRQAPGKGLEWVGWINTETREPAYAYDFRGRFTFSADTSKSTAYLQMNSLRAEDTAVYYCALDYSYAMDYWGQGTLVTVSS
notes: as for B1
B4: CAR comprising scFv-10′ (SEQ ID NO: 66) (other)
chain: B1 chain with D162S, Y191Q, D192G, R194T, S230L, A232S, M233L, Y235F
notes: as for B1
B5: CAR comprising scFv-8′ (SEQ ID NO: 64) (other)
chain: B3 chain with K96R, N97T, F98L
notes: as for B1
B6: CAR comprising scFv-11′ (SEQ ID NO: 67) (other)
chain: B1 chain with E183N, R185G, E186N, A188T, Y191Q, D192G, R194T, S230T, A232G
notes: as for B1
B7: CAR comprising scFv-Y31 (SEQ ID NO: 56) (other)
chain: B1 chain with S160D, D162S, R167K
notes: as for B1
B8: CAR comprising scFv-Y34 (SEQ ID NO: 59) (other)
chain: B1 chain with Q135E, P138A, L140V, I149V, A152K, S160D, D162S, T198A, F199I, D202E
notes: as for B1
B9: CAR comprising scFv-Y33 (SEQ ID NO: 58) (other)
chain: B1 chain with Q135E, P138A, L140V, S160D, D162S, R167K, A201L
notes: as for B1
B10: CAR comprising scFv-Yi1 (SEQ ID NO: 54) (other)
chain: B1 chain with E85D, Q104G, V108L, S160D, D162S, R167K, A201L
notes: CAR on mRNA-electroporated human CD8+ T cells; not shown: rest of the CAR (hinge, transmembrane, cytoplasmic domains) not specified for this construct
B11: CAR comprising scFv-J4 (SEQ ID NO: 52) (other)
chain: DIVMTQSPDSLSVSLGERATINCRASESVTILGSHLIHWYQQKPGQPPKLLIQLASNVQTGVPDRFSGSGSGTDFTLTISSLQAEDVAVYYCLQSRTIPRTFGGGTKVEIKGSTSGSGKPGSGEGSTKGQIQLVQSGAEVKKPGESVKISCKASGYTFTDYSINWVRQAPGQGLKWMGWINTETREPAYAYDFRGRFAFSLDTSASTAYLQISSLKAEDTAVYFCALDYSYAMDYWGQGTLVTVSS
notes: as for B1
B12: CAR comprising scFv-CAS2 (C2) (SEQ ID NO: 61) (other)
chain: DIVLTQSPASLAVSPGQRATISCRASESVTILGSHLIHWYQQKPGQPPKLLIQLASNVQTGVPARFSGSGSRTDFTLTISSLEPEDVAVYYCLQSRTIPRTFGQGTKVEIKGSTSGSGKPGSGEGSTKGQITLKESGPTLVKPTQTLTLSCKASGYTFTDYSINWVRRAPGKGLEWMGWINTETREPAYAYDFRGRFVFSLDTSVSMAYLQISSLKAEDTAVYYCALDYSYAMDYWGQGTLVTVSS
notes: as for B1
B13: CAR comprising scFv-Yi2 (SEQ ID NO: 55) (other)
chain: DIQLTQSPSSLSASVGDRVTITCRASQSVTILGSHLIHWYQQKPGKAPKLLIQLASNVQTGVPSRFSGSGSGTDFTLTISSLQPEDVATYYCLQSRTIPRTFGQGTKLEIKGSTSGSGKPGSGEGSTKGQVQLVQSGGGLVQPGRSVKLSCAASGYTFTDYSINWVRQAPGKGLEWVGWINTETREPAYAYDFRGRFTISRDTSKNTAYLQMNSLRAEDTAVYYCARDYSYAMDYWGQGTLVTVSS
notes: as for B1
B14: CAR comprising scFv-J2 (SEQ ID NO: 50) (other)
chain: DIVLTQSPASLAVSLGERATISCRASESVSILGSHLLHWYQQKPGQPPKLLIYLASNLQTGVPARFSGSGSGTDFTLTISSLEAEDVAVYYCLQSRTIPRTFGQGTKLEIKGSTSGSGKPGSGEGSTKGQIQLVQSGAEVKKPGASVKISCKASGYTFTDYSINWVRQAPGQGLEWMGWINTETREPAYAYDFRGRVTMTRDTSASTAYLQISSLKAEDTAVYFCALDYSYAMDYWGQGSLVTVSS
notes: as for B1
B15: CAR comprising scFv-J5 (SEQ ID NO: 53) (other)
chain: DIVLTQSPASLAVSLGERATISCRASESVSILGSHYLAWYQQKPGQPPKLLIYLASNLQTGVPARFSGSGSGTDFTLTISSLEAEDVAVYYCQQSRTIPRTFGQGTKLEIKGSTSGSGKPGSGEGSTKGQIQLVQSGAEVKKPGESVKISCKASGYTFTDYSINWVRQAPGQGLKWMGWINTETREPAYAYDFRGRFAFSLDTSASTAYLQISSLKAEDTAVYFCALDYSYAMDYWGQGTLVTVSS
notes: as for B1
B16: CAR comprising scFv-J3 (SEQ ID NO: 51) (other)
chain: B14 chain with E17K, S30T, L37I, L58V, I131V
notes: as for B1
B17: CAR comprising scFv-J1 (SEQ ID NO: 49) (other)
chain: B11 chain with E145A, K175E, F197V, A198T, F199M, S200T, L201R, T240S
notes: as for B1

Target: T1, human BCMA on cells
Assay: cell-based or functional assay

| Binder | Killing (% killed), Effector:target ratio of 1:2 |
| --- | --- |
| B1 | 3% |
| B2 | 78% |
| B3 | 86% |
| B4 | 81% |
| B5 | 26% |
| B6 | 0% |

Target: T2, phycoerythrin (PE)-conjugated BCMA …
Assay: flow cytometry; CAR T cells stained with BCMA-PE, 3 days after electroporation
Experimental: (§1) CAR T cells obtained from the above-described process were tested for viability, CAR protein expression, BCMA binding, and cytotoxicity, i.e., the ability to kill BCMA+ myeloma (tumor) cells. Viability, CAR expression, and BCMA binding were determined by flow cytometry on a GUAVA® […]® 12HT Flow cytometer (EMD Millipore). To test viability, a sample of the CAR T cells was mixed with propidium iodide and run on the flow cytometer with electronic gating on fluorescence in the near infrared channel. To test CAR protein expression and BCMA binding, a sample of the CAR T cells was incubated with 0.4 ug/mL of phycoerythrin (PE)-conjugated BCMA (Recombinant Human TNFRSF17 protein, Fc/His-tagged, R-PE labeled; Creative Biomart, Shirley, N.Y.). CAR expression was assessed on the flow cytometer with electronic gating on fluorescence in the yellow channel to detect presence or absence of emission from BCMA-PE on CAR-positive and CAR-negative cells. BCMA binding was determined by measuring the intensity of fluorescence in the yellow channel to determine the relative quantity of BCMA-PE bound to labelled CAR-positive cells. For the viability, expression, and BCMA binding assays, CD8+ T cells electroporated without mRNA (CAR-negative T Cells) were tested as a parallel control.
For each of the mRNA constructs, CAR T cells were prepared by transfection into human CD8+ cells, as described in Example 1. The CAR T cells made from each mRNA construct were then tested 3 days after electroporation for BCMA binding and tumor killing, as described in Example 1.

| Binder | BCMA Binding (arbitrary units) |
| --- | --- |
| B1 | 189 arbitrary units |
| B2 | 439 arbitrary units |
| B3 | 173 arbitrary units |
| B4 | 269 arbitrary units |
| B5 | 496 arbitrary units |
| B6 | 310 arbitrary units |

Target: T2, phycoerythrin (PE)-conjugated BCMA …
Assay: as above
Remark: another data set of the same source
Experimental: as §1
Numerous CAR-encoding mRNA constructs were prepared using the mRNA construct of SEQ ID: 29 as a starting point (which encodes a CAR of sequence SEQ ID: 19 and comprises the scFv of sequence SEQ ID: 48). These constructs encoded the same or substantially the same amino acid residues in the scFv complementary-determining regions (CDRs) but varied with respect to the amino acid residues in the scFv framework regions. In making these variations, the experimenter's intent was to humanize the scFv framework regions without reducing BCMA-binding and tumor-killing properties of CAR T cells that express the CAR. For each of the mRNA constructs, CAR T cells were prepared by transfection into human CD8+ cells, substantially as described in Example 1. The CAR T cells made from each mRNA construct were then tested 3 days after electroporation for BCMA binding and/or tumor killing, as substantially described in Example 1.

| Binder | BCMA Binding (relative to SEQ ID: 54) | BCMA Binding (relative to SEQ ID: 48) | BCMA Binding |
| --- | --- | --- | --- |
| B7 | 58 relative to SEQ ID: 54 = 100 |  |  |
| B8 | 79 relative to SEQ ID: 54 = 100 |  |  |
| B9 | 40 relative to SEQ ID: 54 = 100 |  |  |
| B10 | 100 relative to SEQ ID: 54 = 100 | 141 relative to SEQ ID: 48 = 100 |  |
| B11 |  | 82 relative to SEQ ID: 48 = 100 |  |
| B12 |  |  | 34 relative (SEQ ID: 48 = 100) |
| B13 |  | 12 relative to SEQ ID: 48 = 100 |  |
| B14 |  | 51 relative to SEQ ID: 48 = 100 |  |
| B15 |  | 103 relative to SEQ ID: 48 = 100 |  |
| B16 |  | 54 relative to SEQ ID: 48 = 100 |  |
| B17 |  | 76 relative to SEQ ID: 48 = 100 |  |
